Results published in patent US12607633B2 (priority 2016, dated 2026).
Entries after “also recorded” stand apart in the source; their conditions may differ.

Assays:
[1] = biological target: VEEV nsP2 protease cleavage of TRIM14 (Venezuelan equine encephalitis virus, UniProt P27282); type: cell-based
[2] = test system: VEEV; type: cell-based, Venezuelan equine encephalitis virus (VEEV)
[3] = biological target: ZIKV ns2B-ns3 protease (Zika virus, UniProt A0A024B7W1, C1582S/C1645S/R1467A/R1531G); type: biochemical
[4] = biological target: EEEV nsP2 cysteine protease (Eastern equine encephalitis virus, UniProt Q4QXJ8); type: biochemical
[5] = biological target: T1, VEEV nsP2 cysteine protease (Venezuelan equine encephalitis virus, UniProt P27282); details: pH 7
[6] = biological target: T1, VEEV nsP2 cysteine protease
[7] = biological target: CHIKV nsP2 cysteine protease (Chikungunya virus, UniProt Q8JUX6, A1139V/C1177Y/S1178N)
[8] = biological target: WEEV nsP2 cysteine protease (Western equine encephalitis virus, UniProt P13896)

Sequence of VEEV nsP2 protease cleavage of TRIM14 (P27282 536-1329 limits assumed): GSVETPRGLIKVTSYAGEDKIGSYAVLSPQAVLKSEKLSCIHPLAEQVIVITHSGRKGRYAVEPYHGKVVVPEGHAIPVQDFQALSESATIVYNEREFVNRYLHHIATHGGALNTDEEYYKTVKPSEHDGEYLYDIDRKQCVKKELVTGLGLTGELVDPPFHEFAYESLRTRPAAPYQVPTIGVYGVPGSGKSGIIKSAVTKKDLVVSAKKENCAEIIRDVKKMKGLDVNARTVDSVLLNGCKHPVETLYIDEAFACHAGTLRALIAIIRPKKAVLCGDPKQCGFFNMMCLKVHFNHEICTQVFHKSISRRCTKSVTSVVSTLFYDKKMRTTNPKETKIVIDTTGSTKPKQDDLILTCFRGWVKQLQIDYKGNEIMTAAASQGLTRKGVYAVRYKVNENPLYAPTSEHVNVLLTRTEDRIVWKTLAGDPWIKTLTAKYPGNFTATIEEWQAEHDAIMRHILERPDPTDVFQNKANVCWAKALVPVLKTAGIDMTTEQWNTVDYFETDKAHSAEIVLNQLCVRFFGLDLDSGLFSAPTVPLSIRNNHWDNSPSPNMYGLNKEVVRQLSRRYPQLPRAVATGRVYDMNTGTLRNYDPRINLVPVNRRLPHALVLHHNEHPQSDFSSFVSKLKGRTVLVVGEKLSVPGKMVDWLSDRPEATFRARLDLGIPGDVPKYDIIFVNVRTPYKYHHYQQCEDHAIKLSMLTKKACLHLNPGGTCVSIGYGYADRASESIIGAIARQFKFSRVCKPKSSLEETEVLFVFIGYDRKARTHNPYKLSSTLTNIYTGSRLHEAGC

CCCNC(=O)[C@H]1O[C@@H]1C(=O)N[C@H](C(=O)N1CCC[C@H]1C(=O)OC)[C@@H](C)CC [CA074 methyl ester]
TRIM14 cleavage product (CP) in infected cell lysates (immunoblot) [1]: halted; also recorded: absent; also recorded: no longer present | VEEV titers / viral replication (plaque assays) [2]: halted viral replication; also recorded: decreased significantly

CFP-FOXG1-YFP: CFP-YFP substrate, 21-residue human FOXG1 sequence RSTTSRAKLAFKR↓GARLTSTG ({CFP}-RSTTSRAKLAFKRGARLTSTG-{YFP})
Proteases cutting the substrate: ZIKV ns2B-ns3 protease [3]: cleavage; also recorded: ZIKV ns2B-ns3 protease

CFP-NT5M-YFP: CFP-YFP substrate, 34-residue human NT5M sequence MIRLGGWCARRLCSAAVPAGRR↓GAAGGLGLAGGR ({CFP}-MIRLGGWCARRLCSAAVPAGRRGAAGGLGLAGGR-{YFP}; cysteine pairing not given here)
Proteases cutting the substrate: ZIKV ns2B-ns3 protease [3]: cleavage; also recorded: ZIKV ns2B-ns3 protease

CFP-SFRP1-YFP: CFP-YFP substrate, 25-residue human SFRP1 sequence MGIGRSEGGRR↓GAALGVLLALGAAL ({CFP}-MGIGRSEGGRRGAALGVLLALGAAL-{YFP})
Proteases cutting the substrate: ZIKV ns2B-ns3 protease [3]: cleavage; also recorded: ZIKV ns2B-ns3 protease

CFP-SFRP2-YFP: Uncleavable control CFP-YFP substrate, 34 residues MLQGPGSLLLLFLASHCCLGSARGLFLFGQPDFS ({CFP}-MLQGPGSLLLLFLASHCCLGSARGLFLFGQPDFS-{YFP}; cysteine pairing not given here)
Proteases cutting the substrate: ZIKV ns2B-ns3 protease [3]: Control, not cleaved by ZIKV

CFP-SFRP4-YFP: Uncleavable control CFP-YFP substrate, 34 residues MFLSILVALCLWLHLALGVRGAPCEAVRIPMCRH ({CFP}-MFLSILVALCLWLHLALGVRGAPCEAVRIPMCRH-{YFP}; cysteine pairing not given here)
Proteases cutting the substrate: ZIKV ns2B-ns3 protease [3]: Control, not cleaved by ZIKV

CFP-TRIM14-YFP (SEQ ID NO: 4): CFP-YFP FRET substrate, 25 residues of human TRIM14 DCFATGRHYWEVDVQEAGA↓GWWVGA (DCFATGRHYWEVDVQEAGAGWWVGA)
Extent of cleavage of TRIM14 substrate by EEEV nsP2 protease (SDS-PAGE) [4]: did not show significant amounts of cleavage | Km [5]: 21 ± 2 µM | Vmax [5]: 0.056 ± 0.002 U/mg | Proteases cutting the substrate: VEEV nsP2 cysteine protease [6]: VEEV nsP2 cysteine protease | Extent of cleavage of TRIM14 substrate by CHIKV nsP2 protease (SDS-PAGE) [7]: did not show evidence of significant cleavage | Extent of cleavage of TRIM14 substrate by WEEV nsP2 protease (SDS-PAGE) [8]: did not show significant amounts of cleavage
